# Assay results published in the RNAGym collection of RNA variant scans (doi:10.1093/nar/gkz1192).
# B1: CPEB3 Ribozyme (parent)
# chain: UAACAGGGGGCCACAGCAGAAGCGUUCACGUCGCAGCCCCUGUCAGAUUCUGGUGAAUCUGCGAAUUCUGCUGUAUAUCUC
# Variants of: B1
# Assay: self-cleavage, relative activity (ratio to wild type); higher = more cleavage; in vitro, sequencing
# Procedure, shortened: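 Barcoded CPEB3 ribozyme mutants, produced by rounds of error-prone PCR, self-cleaved while being transcribed with T7 RNA polymerase for 5 hours at 37°C and during a subsequent 15 min DNase I step before EDTA was added. Sequencing of template-switched cDNA on Illumina gave cleaved and total reads, and DNA sequencing assigned barcodes to variants. Each variant's relative activity is its cleaved/total read fraction divided by the unmutated ribozyme's fraction, averaged across three batches. A variant needed a minimum of 5 reads.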
row,Variant,self-cleavage
1,G7A U26C,0.25
2,G7A U26A,0.28
3,G8A U74C,0.35
4,G8A U74A,0.25
5,G7U A18G,0.19
6,G8A U76A,0.49
7,G7U U54C,0.24
8,G7C A64G,0.35
9,G7C A18G,0.33
10,G8A G22A,0.27
11,G7A G70C,0.06
12,G7C U25C,0.27
13,G7C U25A,0.27
14,G8U A28G,0.14
15,G8A U51G,0.09
16,G8A U51C,0.21
17,G8A U51A,0.24
18,G7A U66C,0.13
19,G8A A13U,0.3
20,G8A A13G,0.44
21,G8A A35U,0.14

row,Variant,self-cleavage
1,G8A A35G,0.5
2,G8A A35C,0.21
3,G7U U67C,0.25
4,G8C G55A,0.37
5,G8C G36C,0.15
6,G8A G33U,0.07
7,G7A C62U,0.22
8,G7A U80C,0.29
9,G7A U80A,0.25
10,G8A C37U,0.05
11,G8A C37A,0.15
12,G8A C14U,0.08
13,G8A C14G,0.38
14,G8A C50U,0.12
15,G8C U54C,0.44
16,G8C A57G,0.52
17,G7U C79A,0.28
18,G7U U80C,0.27
19,G7U U41C,0.21
20,G8A A15C,0.31
21,G8A A15G,0.3

row,Variant,self-cleavage
1,G8A A15U,0.16
2,G8C U69C,0.22
3,G8C A21G,0.06
4,G7U G33A,0.11
5,G7U A75U,0.13
6,G7U A75G,0.2
7,G7A U41A,0.13
8,G7A U41C,0.25
9,G7U U25A,0.15
10,G7U U25C,0.2
11,G8A U25A,0.05
12,G8A U25C,0.26
13,G7U G73U,0.23
14,G8U A21U,0.17
15,G8A G70A,0.05
16,G8A C40U,0.14
17,G8A C40A,0.16
18,G8A U49C,0.2
19,G8A U49A,0.25
20,G8A A64G,0.22
21,G8A A64U,0.27

row,Variant,self-cleavage
1,G7U A64U,0.13
2,G7U A64C,0.13
3,G7U A64G,0.14
4,G7U C37A,0.17
5,G7U C37G,0.53
6,G8A C38U,0.08
7,G7C G30U,0.14
8,G7A U74A,0.09
9,G7A U74C,0.5
10,G7U U74C,0.46
11,G7U U74A,0.22
12,G8A C12G,0.09
13,G7C A56G,0.23
14,G7U A35U,0.38
15,G7U A35G,0.14
16,G7C A35C,0.09
17,G7C A35G,0.31
18,G8C G73U,0.25
19,G7A U31C,0.25
20,G7A U31G,0.14
21,G7U A13G,0.18
